Data from patent US9561289B2, “Peptides for inhibiting tumor growth” (OSPEDALE SAN RAFFAELE SRL, priority 2012, dated 2017).
Where two headings read alike, the source gives them in different places. *1 amine or outer side, *2 acyl side, *3 side chain or, on linkers, in order; H or OH if unused. Where a SMILES comes first, the peptide text is derived from it. Bridges are numbered along the chain shown (N, C = ends). Primed or numbered codes have the meaning given here. Side-chain parts run from the residue outwards. [ ]: non-standard residue; d: D form. The star is where a group is joined. X1 = NC(=O)C1CCC(CN2C(=O)CC(*)C2=O)CC1; X2 = O=C(O)C1CCC(CN2C(=O)CC(*)C2=O)CC1; βAsp = O=C(O)[C@H](CC(=O)[*:2])N[*:1]; dPhg = N[C@@H](C(=O)O)c1ccccc1; SMCC = sulfo-SMCC linker; OH′ = O*

Experiments:
αvβ5 = target: T1, αvβ5 (Homo sapiens, UniProt P06756+P18084); assay: Competitive integrin binding assay (isoDGR/STV-HRP) on αvβ5-coated plates; details: for ratio of integrin Ki/αvβ3 Ki (αvβ5): number in parenthesis
T1 construct: purchased Immunological Sciences (Rome, Italy)
Method: (§1) A conjugate consisting of biotinylated acetyl-Ciso[…] (SEQ ID NO:36) peptide complexed with streptavidin-peroxidase conjugate (isoDGR/STV-HRP) was first prepared as described previously. […] Each mixture was then added to microtiter plates coated with integrins (αvβ3, αvβ5, αvβ6, […], or α5β1) and incubated for 2 h at room temperature. After washing, each well was incubated with 70 μl of chromogenic solution (o-phenylenediamine dihydrochloride) for 20 min, at room temperature. The chromogenic reaction was stopped by adding an equal volume of 1 N sulfuric acid. The absorbance at 490 nm was then measured using a microtiter plate reader.
(§2) The binding affinity and selectivity of each peptide for different integrins were then analyzed by competitive binding assay, using αvβ3-, αvβ5-, αvβ6-, αvβ8- and α5β1-coated plates and isoDGR/STV-HRP, an ac-isoDGR-2C/peroxidase complex, as competitor.

αvβ6 = target: T2, αvβ6 (Homo sapiens, UniProt P06756+P18564); assay: Competitive integrin binding assay (isoDGR/STV-HRP) on αvβ6-coated plates; details: for ratio of integrin Ki/αvβ3 Ki (αvβ6): number in parenthesis; for Ki: mean ± SE
T2 construct: purchased R&D System (Minneapolis, Minn.)
Method: as §1, §2

αvβ3 = target: T3, αvβ3 (Homo sapiens, UniProt P05106+P06756); assay: Competitive integrin binding assay (isoDGR/STV-HRP) on αvβ3-coated plates; details: for ratio of integrin Ki/αvβ3 Ki (αvβ3): number in parenthesis
T3 construct: purchased Immunological Sciences (Rome, Italy)
Method: as §1, §2

α5β1 = target: T4, α5β1 (Homo sapiens, UniProt P05556+P08648); assay: Competitive integrin binding assay (isoDGR/STV-HRP) on α5β1-coated plates; details: for ratio of integrin Ki/αvβ3 Ki (α5β1): number in parenthesis
T4 construct: purchased Immunological Sciences (Rome, Italy)
Method: as §1, §2

αvβ8 = target: T5, αvβ8 (Homo sapiens, UniProt P06756+P26012); assay: Competitive integrin binding assay (isoDGR/STV-HRP) on αvβ8-coated plates; details: for ratio of integrin Ki/αvβ3 Ki (αvβ8): number in parenthesis
T5 construct: purchased R&D System (Minneapolis, Minn.)
Method: as §1, §2

[1] = Asn deamidation of NGR peptides by mass spectrometry; assay type: physicochemical; details: 37° C., 0.1 M ammonium bicarbonate buffer, pH 8.5
Method: Orbitrap-ESI mass spectrometry analysis of NGR#3 and NGR-2C at various time points after incubation at 37° C. in 0.1 M ammonium bicarbonate buffer (Ambic), pH 8.5. During the analyses the NGR#3 forms dimers. +0 (no deamidation), +0.5 (one deamidation/molecule) and +1 (two deamidations/molecule) correspond to the difference between found and expected molecular masses in daltons.
It is well known that NGR may undergo Asn deamidation generating isoDGR, an integrin binding motif. To assess whether the molecular scaffold of NGR might affect the deamidation rate we analyzed the molecular masses of NGR#3 and […] (SEQ ID NO:37) (NGR-2C) before and after incubation at 37° C. in 0.1 M ammonium bicarbonate buffer, pH 8.5 (AmBic) for various times. […] The extent of binding of heat-treated NGR-HSA was very similar to that obtained with isoDGR#3-HSA, i.e. a conjugate prepared using a similar peptide having isoAsp in place of Asn (FIG. 17B, right).

Human integrin αvβ3 [2] = target: T6, Human integrin αvβ3 (human, UniProt P06756 31-1048; P05106 27-788, limits assumed); assay: competitive binding assay, integrin-coated plate, probe isoDGR/STV-HRP
T6 construct: Bought from Immunological Sciences; coated on microtiter plates or spotted on nitrocellulose; also called avb3; purified αvβ3-integrin

[3] = target: T7, Recombinant human integrin αvβ6 (human, UniProt P06756 31-992; P18564 22-707); assay: as above
T7 construct: Bought from R&D System

Human integrin αvβ5 [4] = target: T8, Human integrin αvβ5 (human, UniProt P06756 31-1048; P18084 24-799, limits assumed); assay: as above
T8 construct: Bought from Immunological Sciences; coated on microtiter plates

[5] = target: T9, Recombinant human integrin αvβ8 (human, UniProt P06756 31-992; P26012 43-684); assay: as above
T9 construct: Bought from R&D System; also called αvβ38 [sic]

Human integrin α5β1 [6] = target: T10, Human integrin α5β1 (human, UniProt P08648 42-1049; P05556 21-798, limits assumed); assay: as above
T10 construct: Bought from Immunological Sciences; coated on microtiter plates

Human integrin αvβ3 [7] = target: T6, Human integrin αvβ3; assay: as above; remark: listed apart in the source
[8] = target: T7, Recombinant human integrin αvβ6; assay: as above; remark: listed apart in the source
Human integrin αvβ5 [9] = target: T8, Human integrin αvβ5; assay: as above; remark: listed apart in the source
[10] = target: T9, Recombinant human integrin αvβ8; assay: as above; remark: listed apart in the source
Human integrin α5β1 [11] = target: T10, Human integrin α5β1; assay: as above; remark: listed apart in the source

N=C(N)NCCC[C@@H]1NC(=O)CNC(=O)C[C@@H](C(=O)O)NC(=O)CNC(=O)[C@H](CSC2CC(=O)N(CC3CCC(C(N)=O)CC3)C2=O)NC(=O)CNC1=O (stereo partly shown) [isoDGR#1-P1] (GRGC(X1)GD-OH; lactam N-6)
ratio of integrin Ki/αvβ3 Ki (αvβ5) (αvβ5): (1)^ | ratio of integrin Ki/αvβ3 Ki (αvβ6) (αvβ6): (17) | ratio of integrin Ki/αvβ3 Ki (αvβ3) (αvβ3): (1) | ratio of integrin Ki/αvβ3 Ki (α5β1) (α5β1): (8.6) | ratio of integrin Ki/αvβ3 Ki (αvβ8) (αvβ8): (160)

N=C(N)NCCC[C@@H]1NC(=O)CNC(=O)C[C@@H](C(=O)O)NC(=O)CNC(=O)[C@H](CSC2CC(=O)N(CC3CCC(C(=O)O)CC3)C2=O)NC(=O)CNC1=O (stereo partly shown) [isoDGR#1-P2] (GRGC(X2)GD-OH; lactam N-6)
ratio of integrin Ki/αvβ3 Ki (αvβ5) (αvβ5): (1.6) | ratio of integrin Ki/αvβ3 Ki (αvβ6) (αvβ6): (80) | ratio of integrin Ki/αvβ3 Ki (αvβ3) (αvβ3): (1) | ratio of integrin Ki/αvβ3 Ki (α5β1) (α5β1): (9.6) | ratio of integrin Ki/αvβ3 Ki (αvβ8) (αvβ8): (318)

N=C(N)NCCC[C@@H]1NC(=O)CNC(=O)C[C@@H](C(=O)O)NC(=O)[C@H](CS)NC(=O)CNC1=O [isoDGR#2, c(CisoDGRG)] (GRGCD-OH; lactam N-5)
ratio of integrin Ki/αvβ3 Ki (αvβ5) (αvβ5): (1) | ratio of integrin Ki/αvβ3 Ki (αvβ6) (αvβ6): (1.9) | ratio of integrin Ki/αvβ3 Ki (αvβ3) (αvβ3): (1) | ratio of integrin Ki/αvβ3 Ki (α5β1) (α5β1): (0.5) | ratio of integrin Ki/αvβ3 Ki (αvβ8) (αvβ8): (2.2)

N=C(N)NCCC[C@@H]1NC(=O)CNC(=O)C[C@@H](C(=O)O)NC(=O)[C@H](CSC2CC(=O)N(CC3CCC(C(=O)O)CC3)C2=O)NC(=O)CNC(=O)CNC1=O (stereo partly drawn) [isoDGR#3-P2] (GRGGC(X2)D-OH; lactam N-6)
Ki (αvβ6): 468 nM | ratio of integrin Ki/αvβ3 Ki (αvβ6) (αvβ6): (26) | ratio of integrin Ki/αvβ3 Ki (αvβ3) (αvβ3): (1) | Ki (αvβ8; mean ± SE): 430 nM | ratio of integrin Ki/αvβ3 Ki (αvβ8) (αvβ8): (24)

N=C(N)NCCC[C@@H]1NC(=O)CNC(=O)C[C@@H](C(=O)O)NC(=O)CNC(=O)[C@H](CS)NC(=O)[C@@H](c2ccccc2)NC1=O [isoDGR#5, c(CGisoDGRphg)] (GR[dPhg]CGD-OH; lactam N-6)
ratio of integrin Ki/αvβ3 Ki (αvβ5) (αvβ5): (1.30) | ratio of integrin Ki/αvβ3 Ki (αvβ6) (αvβ6): (3.7) | ratio of integrin Ki/αvβ3 Ki (αvβ3) (αvβ3): (1) | ratio of integrin Ki/αvβ3 Ki (α5β1) (α5β1): (3.26) | ratio of integrin Ki/αvβ3 Ki (αvβ8) (αvβ8): (42)

N=C(N)NCCC[C@@H]1NC(=O)CNC(=O)C[C@@H](C(=O)O)NC(=O)[C@H](CS)NC(=O)[C@@H](c2ccccc2)NC(=O)CNC1=O [isoDGR#7, c(CisoDGRGphg)] (GRG[dPhg]CD-OH; lactam N-6)
ratio of integrin Ki/αvβ3 Ki (αvβ5) (αvβ5): (0.6) | ratio of integrin Ki/αvβ3 Ki (αvβ6) (αvβ6): (0.03) | ratio of integrin Ki/αvβ3 Ki (αvβ3) (αvβ3): (1) | ratio of integrin Ki/αvβ3 Ki (α5β1) (α5β1): (0.04) | ratio of integrin Ki/αvβ3 Ki (αvβ8) (αvβ8): (0.4)

*AV(0:1): sulfo-SMCC-activated avidin lacking the peptide [reference compound]
Ki (αvβ5; mean ± SE): > 2500 nM | Ki (αvβ6): > 2500 nM | Ki (αvβ3; mean ± SE): > 2500 nM | Ki (α5β1; mean ± SE): > 2500 nM

CNGRCGVRY [NGR-2C, reference compound]
deamidation rate [1]: faster than that of NGR#3

c(CNGRGG) (cyclic; Cyclic peptide) [NGR#3]
deamidation rate [1]: reduce the deamidation rate

B1: c(CisoDGRG) (peptide)
peptide: cyclo(C[βAsp]GRG)
SMILES: N=C(N)NCCC[C@@H]1NC(=O)CNC(=O)C[C@@H](C(=O)O)NC(=O)[C@H](CS)NC(=O)CNC1=O
notes: also called isoDGR#2
Ki (Human integrin αvβ3 [2]): 483 nM | ratio of integrin Ki/αvβ3 Ki (Human integrin αvβ3 [2]): 1 | Ki [3]: 899 nM | ratio of integrin Ki/αvβ3 Ki [3]: 1.9 | Ki (Human integrin αvβ5 [4]): 492 nM | ratio of integrin Ki/αvβ3 Ki (Human integrin αvβ5 [4]): 1 | Ki [5]: 1080 nM | ratio of integrin Ki/αvβ3 Ki [5]: 2.2 | Ki (Human integrin α5β1 [6]): 266 nM | ratio of integrin Ki/αvβ3 Ki (Human integrin α5β1 [6]): 0.5

B2: c(CGisoDGRG) (peptide)
peptide: cyclo(CG[βAsp]GRG)
SMILES: N=C(N)NCCC[C@@H]1NC(=O)CNC(=O)C[C@@H](C(=O)O)NC(=O)CNC(=O)[C@H](CS)NC(=O)CNC1=O
notes: also called isoDGR#1
Ki (Human integrin αvβ3 [2]): 103 nM | ratio of integrin Ki/αvβ3 Ki (Human integrin αvβ3 [2]): 1 | Ki [3]: 1470 nM | ratio of integrin Ki/αvβ3 Ki [3]: 14 | Ki (Human integrin αvβ5 [4]): 225 nM | ratio of integrin Ki/αvβ3 Ki (Human integrin αvβ5 [4]): 2 | Ki [5]: 7270 nM | ratio of integrin Ki/αvβ3 Ki [5]: 70 | Ki (Human integrin α5β1 [6]): 320 nM | ratio of integrin Ki/αvβ3 Ki (Human integrin α5β1 [6]): 3

B3: isoDGR#1-linker conjugate, peak P1 (peptide)
peptide: cyclo(C([SMCC-NH2])G[βAsp]GRG)
notes: HPLC peak P1 (amido form); also called isoDGR#1-P1
Ki (Human integrin αvβ3 [7]): 35 nM | ratio of integrin Ki/αvβ3 Ki (Human integrin αvβ3 [7]): 1 | Ki [8]: 583 nM | ratio of integrin Ki/αvβ3 Ki [8]: 17 | Ki (Human integrin αvβ5 [9]): 35 nM | ratio of integrin Ki/αvβ3 Ki (Human integrin αvβ5 [9]): 1 | Ki [10]: 5600 nM | ratio of integrin Ki/αvβ3 Ki [10]: 160 | Ki (Human integrin α5β1 [11]): 302 nM | ratio of integrin Ki/αvβ3 Ki (Human integrin α5β1 [11]): 8.6

B4: isoDGR#1-linker conjugate, peak P2 (peptide)
peptide: cyclo(C([SMCC-OH′])G[βAsp]GRG)
notes: HPLC peak P2 (carboxylic form, partial hydrolysis of sulfo-succinimide); also called isoDGR#1-P2
Ki (Human integrin αvβ3 [7]): 33 nM | ratio of integrin Ki/αvβ3 Ki (Human integrin αvβ3 [7]): 1 | Ki [8]: 2730 nM | ratio of integrin Ki/αvβ3 Ki [8]: 80 | Ki (Human integrin αvβ5 [9]): 52 nM | ratio of integrin Ki/αvβ3 Ki (Human integrin αvβ5 [9]): 1.6 | Ki [10]: 10500 nM | ratio of integrin Ki/αvβ3 Ki [10]: 318 | Ki (Human integrin α5β1 [11]): 318 nM | ratio of integrin Ki/αvβ3 Ki (Human integrin α5β1 [11]): 9.6

B5: isoDGR#3-linker conjugate, peak P2 (peptide)
peptide: cyclo(C(SMCC)[βAsp]GRGG)
modifications: not fully specified
notes: said to be similar to isoDGR#1-linker (P2 carboxylic form); also called isoDGR#3-P2
Ki (Human integrin αvβ3 [7]): 18 nM

B6: c(CisoDGRGG) (peptide)
peptide: cyclo(C[βAsp]GRGG)
SMILES: N=C(N)NCCC[C@@H]1NC(=O)CNC(=O)C[C@@H](C(=O)O)NC(=O)[C@H](CS)NC(=O)CNC(=O)CNC1=O
notes: also called isoDGR#3
Ki (Human integrin αvβ3 [2]): 43 nM | Ki [3]: 58 nM | Ki (Human integrin αvβ5 [4]): 42 nM | Ki [5]: 54 nM | Ki (Human integrin α5β1 [6]): 21 nM
